B1: Yth1 (recombinant, polymerase module) (natural protein, yeast)
chain: SLIHPDTAKYPFKFEPFLRQEYSFSLDPDRPICEFYNSREGPKSCPRGPLCPKKHVLPIFQNKIVCRHWLRGLCKKNDQCEYLHEYNLRKMPECVFFSKNGYCTQSPDCQYLHIDPASKIPKCENYEMGFCPLGSSCPRRHIKKVFCQRYMTGFCPLGKDECDMEHPQFIIPDEGSKLRIKRDDEINTRKMDEEKERRLNAIINGEV
notes: Yth1, yeast; ordered in the cryo-EM map: residues 1 to 94; zinc fingers 3 to 5 (residues 95 to 208) not visible; source: overexpressed in insect cells, purified as part of the polymerase module
B2: Pfs2 (recombinant, polymerase module) (natural protein, yeast)
chain: MDGHNQNQYQNQNQIQQSQQPPLKKYVTQRRSVDVSSPYINLYYNRRHGLPNLVVEPETSYTIDIMPPNAYRGRDRVINLPSKFTHLSSNKVKHVIPAIQWTPEGRRLVVATYSGEFSLWNASSFTFETLMQAHDSAVTTMKYSHDSDWMISGDADGMIKIWQPNFSMVKEIDAAHTESIRDMAFSSNDSKFVTCSDDNILKIWNFSNGKQERVLSGHHWDVKSCDWHPEMGLIASASKDNLVKLWDPRSGNCISSILKFKHTVLKTRFQPTKGNLLMAISKDKSCRVFDIRYSMKELMCVRDETDYMTLEWHPINESMFTLACYDGSLKHFDLLQNLNEPILTIPYAHDKCITSLSYNPVGHIFATAAKDRTIRFWTRARPIDPNAYDDPTYNNKKINGWFFGINNDINAVREKSEFGAAPPPPATLEPHALPNMNGFINKKPRQEIPGIDSNIKSSTLPGLSI
notes: Pfs2, yeast; ordered in the cryo-EM map: residues 27 to 411; source: overexpressed in insect cells, purified as part of the polymerase module
B3: Pap1 (recombinant, polymerase module) (enzyme, yeast, UniProt P29468 1-568, looked up)
chain: MSSQKVFGITGPVSTVGATAAENKLNDSLIQELKKEGSFETEQETANRVQVLKILQELAQRFVYEVSKKKNMSDGMARDAGGKIFTYGSYRLGVHGPGSDIDTLVVVPKHVTREDFFTVFDSLLRERKELDEIAPVPDAFVPIIKIKFSGISIDLICARLDQPQVPLSLTLSDKNLLRNLDEKDLRALNGTRVTDEILELVPKPNVFRIALRAIKLWAQRRAVYANIFGFPGGVAWAMLVARICQLYPNACSAVILNRFFIILSEWNWPQPVILKPIEDGPLQVRVWNPKIYAQDRSHRMPVITPAYPSMCATHNITESTKKVILQEFVRGVQITNDIFSNKKSWANLFEKNDFFFRYKFYLEITAYTRGSDEQHLKWSGLVESKVRLLVMKLEVLAGIKIAHPFTKPFESSYCCPTEDDYEMIQDKYGSHKTETALNALKLVTDENKEEESIKDAPKAYLSTMYIGLDFNIENKKEKVDIHIPCTEFVNLCRSFNEDYGDHKVFNLALRFVKGYDLPDEVFDENEKRPSKKSKRKNLDARHETVKRSKSDAASGDNINGTTAAVDVN
notes: Pap1 poly(A) polymerase, yeast; source: overexpressed in insect cells, purified as part of the polymerase module
B4: Fip1 (recombinant, polymerase module) (natural protein, yeast, UniProt P45976 1-327, looked up)
chain: MSSSEDEDDKFLYGSDSELALPSSKRSRDDEADAGASSNPDIVKRQKFDSPVEETPATARDDRSDEDIYSDSSDDDSDSDLEVIISLGPDPTRLDAKLLDSYSTAATSSSKDVISVATDVSNTITKTSDERLITEGEANQGVTATTVKATESDGNVPKAMTGSIDLDKEGIFDSVGITTIDPEVLKEKPWRQPGANLSDYFNYGFNEFTWMEYLHRQEKLQQDYNPRRILMGLLSLQQQGKLNSANDTDSNLGNIIDNNNNVNNANMSNLNSNMGNSMSGTPNPPAPPMHPSFPPLPMFGSFPPFPMPGMMPPMNQQPNQNQNQNSK
notes: Fip1, yeast; present in the four-subunit complex but not visible in the cryo-EM map; source: overexpressed in insect cells, purified as part of the polymerase module

Assays:
Details in all cases: both partners purified
[1] = molecular target: B2; experiment: cryo-EM structure; recombinant four-subunit complex (Cft1, Pfs2, Yth1, Fip1) overexpressed in insect cells; overall resolution 3.5 Å
[2] = molecular target: T1, Cft1 (recombinant, polymerase module) (yeast, UniProt Q06632 1-1357); experiment: as above
T1 construct: Cft1, yeast; ordered in the cryo-EM map: residues 1 to 1357 (several loops not visible); source: overexpressed in insect cells, purified as part of the polymerase module
T1 sequence: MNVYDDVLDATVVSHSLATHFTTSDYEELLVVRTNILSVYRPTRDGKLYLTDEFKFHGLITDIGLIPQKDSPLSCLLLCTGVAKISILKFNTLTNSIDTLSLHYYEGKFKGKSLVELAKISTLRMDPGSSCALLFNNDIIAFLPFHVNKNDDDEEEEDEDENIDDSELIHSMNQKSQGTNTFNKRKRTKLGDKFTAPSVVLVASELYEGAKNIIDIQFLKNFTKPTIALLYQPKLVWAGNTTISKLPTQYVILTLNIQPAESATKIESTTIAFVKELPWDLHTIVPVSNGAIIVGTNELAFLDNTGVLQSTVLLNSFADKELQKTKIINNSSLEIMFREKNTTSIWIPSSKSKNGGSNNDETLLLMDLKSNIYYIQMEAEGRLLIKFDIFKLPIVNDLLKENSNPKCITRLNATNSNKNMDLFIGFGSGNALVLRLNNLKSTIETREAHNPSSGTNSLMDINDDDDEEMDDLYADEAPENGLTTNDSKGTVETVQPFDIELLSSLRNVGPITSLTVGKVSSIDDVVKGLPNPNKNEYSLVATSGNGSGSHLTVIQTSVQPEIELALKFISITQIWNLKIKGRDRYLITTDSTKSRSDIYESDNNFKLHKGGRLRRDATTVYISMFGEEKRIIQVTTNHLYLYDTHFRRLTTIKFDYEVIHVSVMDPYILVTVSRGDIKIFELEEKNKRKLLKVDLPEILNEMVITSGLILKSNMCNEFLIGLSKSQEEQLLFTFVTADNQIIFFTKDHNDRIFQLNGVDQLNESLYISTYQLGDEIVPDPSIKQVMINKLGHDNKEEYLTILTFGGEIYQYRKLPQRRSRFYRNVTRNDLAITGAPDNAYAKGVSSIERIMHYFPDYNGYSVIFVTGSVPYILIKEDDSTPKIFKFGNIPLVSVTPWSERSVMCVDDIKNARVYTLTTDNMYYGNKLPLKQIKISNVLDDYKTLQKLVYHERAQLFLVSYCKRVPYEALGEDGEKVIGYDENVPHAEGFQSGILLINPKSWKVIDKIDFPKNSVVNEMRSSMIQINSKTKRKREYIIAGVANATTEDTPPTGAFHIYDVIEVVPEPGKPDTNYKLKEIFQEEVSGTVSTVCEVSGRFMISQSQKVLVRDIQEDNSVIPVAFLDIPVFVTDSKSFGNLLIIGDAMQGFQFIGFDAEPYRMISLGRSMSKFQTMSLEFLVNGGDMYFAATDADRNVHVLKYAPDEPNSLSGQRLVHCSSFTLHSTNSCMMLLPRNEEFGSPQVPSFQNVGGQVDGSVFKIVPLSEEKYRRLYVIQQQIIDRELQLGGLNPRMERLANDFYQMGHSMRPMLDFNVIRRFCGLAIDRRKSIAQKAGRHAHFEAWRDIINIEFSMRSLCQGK

[3] = molecular target: B3; experiment: cross-linking; cross-linking mass spectrometry of the polymerase module, to determine where Pap1 and Fip1 bind
[4] = molecular target: B4; experiment: as above
[5] = molecular target: T1, Cft1 (recombinant, polymerase module); experiment: as above

Binder | binding result [1] | binding result [2] | binding result [3] | binding result [4] | binding result [5]
B1 | binds | binds | binds | binds | 
B2 |  | binds | binds |  | 
B3 |  |  |  |  | binds
B4 |  |  | binds |  | 

— publication PMC5788269, “Architecture of eukaryotic mRNA 3′-end processing machinery” (Science (New York, N.y.), 2017)
